From patent publication US20250223364A1 (DREN BIO, published 2025)
One block for each molecule: values may come before it.

What was measured:
HEK293F hDectin-1a FL = HEK293F hDectin-1a FL (UniProt Q9BXN2); experiment: cell binding; HEK293F hDectin-1a FL cells
[1] = molecular target: HEK-Blue hDectin-1a cells (UniProt Q9BXN2); experiment: cell binding; HEK-Blue hDectin-1a cells
Human monocytes (human) = Human monocytes (human) (UniProt Q9BXN2); experiment: cell binding; human monocytes
[2] = molecular target: HEK-Blue hDectin-1b cells (UniProt Q9BXN2); experiment: cell binding; HEK-Blue hDectin-1b cells
[3] = molecular target: cynomolgus monkey Dectin-1 (cynomolgus monkey); experiment: flow cytometry on cynomolgus monkey monocytes
[4] = molecular target: T1, Dectin-1-expressing HEK cells (human, UniProt Q9BXN2 1-247); experiment: flow cytometry; HEK cells
T1 chain: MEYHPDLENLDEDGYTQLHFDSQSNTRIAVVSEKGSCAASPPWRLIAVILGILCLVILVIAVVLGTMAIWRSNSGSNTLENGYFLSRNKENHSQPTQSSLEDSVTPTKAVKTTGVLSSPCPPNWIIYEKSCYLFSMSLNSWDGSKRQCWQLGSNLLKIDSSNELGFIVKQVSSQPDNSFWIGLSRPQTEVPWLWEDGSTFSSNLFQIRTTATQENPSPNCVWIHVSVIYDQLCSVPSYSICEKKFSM

[5] = molecular target: T2, cynomolgus monkey Dectin-1 (cynomolgus monkey, UniProt A0A2K5UXY6 35-281); experiment: flow cytometry on cynomolgus monkey monocytes
T2 construct: whole, on cells; also called cynomolgus Dectin-1; Dectin-1 on cynomolgus monkey monocytes
T2 sequence: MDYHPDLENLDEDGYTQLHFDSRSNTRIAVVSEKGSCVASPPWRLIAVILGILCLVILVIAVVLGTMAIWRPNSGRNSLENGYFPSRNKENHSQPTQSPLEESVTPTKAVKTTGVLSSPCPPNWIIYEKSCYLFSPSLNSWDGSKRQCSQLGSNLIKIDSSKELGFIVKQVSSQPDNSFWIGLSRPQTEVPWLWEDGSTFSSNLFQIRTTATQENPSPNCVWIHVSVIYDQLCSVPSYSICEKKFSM

[6] = molecular target: T3, human Dectin-1 (isoform not given) (human, UniProt Q9BXN2 1-247); experiment: flow cytometry on HEK 293 cells stably overexpressing human Dectin-1
T3 construct: whole, on cells; also called hDectin-1; Dectin-1 on human monocytes
T3 sequence (looked up): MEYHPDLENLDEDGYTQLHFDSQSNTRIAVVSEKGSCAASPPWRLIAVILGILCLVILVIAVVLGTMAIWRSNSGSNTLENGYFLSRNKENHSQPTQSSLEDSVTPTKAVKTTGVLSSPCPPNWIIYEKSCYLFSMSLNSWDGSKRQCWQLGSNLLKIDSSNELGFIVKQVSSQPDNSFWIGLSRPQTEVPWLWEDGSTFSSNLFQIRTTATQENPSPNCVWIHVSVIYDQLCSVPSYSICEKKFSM

EC50 (HEK293F hDectin-1a FL): 1.4 nM | EC50 [1]: 1.2 nM | EC50 (Human monocytes (human)): 0.6 nM | EC50 [2]: 9.3 nM
Molecule: 15E2

EC50 [3]: 14 nM
Molecule: 15E2 commercial anti-Dectin-1 antibody

EC50 [3]: 16 nM
Molecule: 259931 commercial anti-Dectin-1 antibody

EC50 (HEK293F hDectin-1a FL): 2.4 nM | EC50 [1]: 1.9 nM | EC50 (Human monocytes (human)): 1.4 nM | EC50 [2]: 12 nM
Molecule: GE2

EC50 [4]: 1.6 nM
B1: 2m24/RSV (bispecific antibody)
chain 1: QVQLVQSGAEVKKPGASVKVSCKSSGYTFTDYYIHWVRQAPGQGLEWMGWINPNSGDTNYAQKFQGRITMTRDTSISTAYLELSRLRSDDTAVFYCARNSGSYSFGYWGQGTLVTVSS
chain 2: DIQMTQSPSSVSASVGDRVTITCRASQGISSWLAWYQQKPGKAPKLLIFGASSLQSGVPSRFSGSGSGTDFTLTVSSLQPEDFATYYCQQAYSFPFTFGPGTKVDIE
chain 3: QVTLRESGPALVKPTQTLTLTCTFSGFSLSTSGMSVGWIRQPPGKALEWLADIWWDDKKDYNPSLKSRLTISKDTSANQVVLKVTNMDPADTATYYCARSMITNWYFDVWGAGTTVTVSS
chain 4: DIQMTQSPSTLSASVGDRVTITCKCQLSVGYMHWYQQKPGKAPKLLIYDTSKLASGVPSRFSGSGSGTAFTLTISSLQPDDFATYYCFQGSGYPFTFGGGTKLEIK

EC50 [5]: 0.3 nM
B2: anti-human Dectin-1 antibody clone 2M24 (mIgG1) (antibody, V domains shown)
VH: QVQLVQSGAEVKKPGASVKVSCKSSGYTFTDYYIHWVRQAPGQGLEWMGWINPNSGDTNYAQKFQGRITMTRDTSISTAYLELSRLRSDDTAVFYCARNSGSYSFGYWGQGTLVTVSS
VL: DIQMTQSPSSVSASVGDRVTITCRASQGISSWLAWYQQKPGKAPKLLIFGASSLQSGVPSRFSGSGSGTDFTLTVSSLQPEDFATYYCQQAYSFPFTFGPGTKVDIE

EC50 [6]: 1.45 nM
B3: Fab 2M24-mSA fusion protein (Fab, V domains shown)
VH: QVQLVQSGAEVKKPGASVKVSCKSSGYTFTDYYIHWVRQAPGQGLEWMGWINPNSGDTNYAQKFQGRITMTRDTSISTAYLELSRLRSDDTAVFYCARNSGSYSFGYWGQGTLVTVSS
VL: DIQMTQSPSSVSASVGDRVTITCRASQGISSWLAWYQQKPGKAPKLLIFGASSLQSGVPSRFSGSGSGTDFTLTVSSLQPEDFATYYCQQAYSFPFTFGPGTKVDIE
